The results in this text go back to PMC10002499.

For assay [1], the target named is dysferlin canonical C2A domain, construct 3 (aa 19-134) (Rattus norvegicus). In words: SPR; Biacore 3000, 25 °C; His6 fusion ligand amine-coupled on a CM5 chip (dysferlin C2 domain as ligand, partner as analyte, per Figure 2 'ligand:analyte'); analyte typically 0–320 nM, including reversal of ligand and analyte; 1:1 Langmuir model; Ca2+ level of the KD values of Table 1 not given. In general terms: In SPR one partner is held on a chip, and binding of the other changes the refractive index at the surface.

The target in assay [2] is dysferlin C2F domain (Rattus norvegicus). The description is as above.
Assay [3] has as its target annexin A2 (amino terminus) construct (rat). In words: SPR; 100 uM Ca2+. The conditions noted are these: domain or fragment.
For assay [4] the target is unchanged. In words: SPR; without Ca2+. The conditions noted are these: domain or fragment.
The target is the same in assay [5]. In words: SPR; 0 added Ca2+. The conditions noted are these: domain or fragment.

Sequence of dysferlin canonical C2A domain, construct 3 (aa 19-134) (Rattus norvegicus) (Q9ESD7 other isoform, or with tags, fused parts or gaps): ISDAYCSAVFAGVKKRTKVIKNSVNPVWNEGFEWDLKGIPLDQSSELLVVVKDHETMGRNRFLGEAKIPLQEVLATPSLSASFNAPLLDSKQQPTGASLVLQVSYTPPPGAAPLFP
Sequence of dysferlin C2F domain (Rattus norvegicus) (Q9ESD7 1805-1953): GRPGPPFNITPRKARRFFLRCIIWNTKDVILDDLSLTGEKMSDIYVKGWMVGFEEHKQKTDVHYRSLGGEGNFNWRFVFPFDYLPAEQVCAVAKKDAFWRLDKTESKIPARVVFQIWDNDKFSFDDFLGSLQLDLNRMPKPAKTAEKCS
Sequence of annexin A2 (amino terminus) construct (rat) (Q07936 2-339): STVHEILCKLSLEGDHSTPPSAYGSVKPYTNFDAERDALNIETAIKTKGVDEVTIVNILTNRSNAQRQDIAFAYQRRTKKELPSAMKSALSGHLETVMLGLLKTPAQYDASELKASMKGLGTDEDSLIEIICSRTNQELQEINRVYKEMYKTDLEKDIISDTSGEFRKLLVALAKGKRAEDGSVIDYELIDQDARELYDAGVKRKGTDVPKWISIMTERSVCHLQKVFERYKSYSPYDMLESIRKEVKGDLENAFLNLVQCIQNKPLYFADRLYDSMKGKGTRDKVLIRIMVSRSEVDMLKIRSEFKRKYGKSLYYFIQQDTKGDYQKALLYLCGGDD
Sequence of calpain-3 construct (domain or fragment) (P16259 whole entry, the tested form may be a part): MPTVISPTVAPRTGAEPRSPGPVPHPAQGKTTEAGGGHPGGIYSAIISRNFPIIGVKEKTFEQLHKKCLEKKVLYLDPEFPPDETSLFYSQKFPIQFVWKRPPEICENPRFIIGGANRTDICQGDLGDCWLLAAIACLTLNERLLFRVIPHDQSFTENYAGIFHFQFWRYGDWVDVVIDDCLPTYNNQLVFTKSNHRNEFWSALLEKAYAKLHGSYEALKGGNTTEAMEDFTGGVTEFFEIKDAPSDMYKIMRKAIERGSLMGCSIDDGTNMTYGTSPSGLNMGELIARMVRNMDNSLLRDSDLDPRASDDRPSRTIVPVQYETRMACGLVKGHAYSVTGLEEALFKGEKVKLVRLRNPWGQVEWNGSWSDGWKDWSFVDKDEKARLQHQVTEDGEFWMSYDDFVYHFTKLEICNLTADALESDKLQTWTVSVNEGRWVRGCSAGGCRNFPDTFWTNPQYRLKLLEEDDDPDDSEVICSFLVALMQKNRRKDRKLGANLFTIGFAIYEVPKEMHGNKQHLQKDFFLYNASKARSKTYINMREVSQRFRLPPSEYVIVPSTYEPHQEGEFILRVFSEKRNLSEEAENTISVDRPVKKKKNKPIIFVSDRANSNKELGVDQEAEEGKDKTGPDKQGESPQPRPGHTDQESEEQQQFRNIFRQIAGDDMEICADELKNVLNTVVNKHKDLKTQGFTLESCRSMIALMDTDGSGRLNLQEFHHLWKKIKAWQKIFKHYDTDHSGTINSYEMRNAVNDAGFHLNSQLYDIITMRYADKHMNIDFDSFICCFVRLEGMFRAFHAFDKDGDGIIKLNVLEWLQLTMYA
Sequence of annexin A1 construct (domain or fragment) (P07150 2-346): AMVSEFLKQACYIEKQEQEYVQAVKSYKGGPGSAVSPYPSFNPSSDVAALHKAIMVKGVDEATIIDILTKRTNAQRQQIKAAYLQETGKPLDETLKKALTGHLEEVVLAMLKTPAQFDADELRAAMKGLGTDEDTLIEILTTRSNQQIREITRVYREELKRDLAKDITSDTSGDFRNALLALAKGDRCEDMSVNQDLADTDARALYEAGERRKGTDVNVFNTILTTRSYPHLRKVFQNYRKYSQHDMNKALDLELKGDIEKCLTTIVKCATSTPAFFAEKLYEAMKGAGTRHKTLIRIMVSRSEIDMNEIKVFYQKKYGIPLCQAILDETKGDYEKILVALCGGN
Sequence of caveolin-3 construct (domain or fragment) (P51638 whole entry, the tested form may be a part): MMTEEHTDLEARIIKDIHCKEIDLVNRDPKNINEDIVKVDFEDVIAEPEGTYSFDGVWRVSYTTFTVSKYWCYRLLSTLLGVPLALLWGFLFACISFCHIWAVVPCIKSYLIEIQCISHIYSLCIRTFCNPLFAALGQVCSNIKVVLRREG
Sequence of syntaxin-4 construct (domain or fragment) (Q08850 whole entry, the tested form may be a part): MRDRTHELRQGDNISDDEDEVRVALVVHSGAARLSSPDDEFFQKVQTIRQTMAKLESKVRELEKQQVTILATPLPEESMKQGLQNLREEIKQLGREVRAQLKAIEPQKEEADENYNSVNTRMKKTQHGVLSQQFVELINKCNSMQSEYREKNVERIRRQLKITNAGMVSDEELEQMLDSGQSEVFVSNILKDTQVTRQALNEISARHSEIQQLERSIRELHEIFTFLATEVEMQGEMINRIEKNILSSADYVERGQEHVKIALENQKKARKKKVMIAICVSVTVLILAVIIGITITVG
Sequence of mitsugumin-53 construct (domain or fragment) (A0JPQ4 whole entry, the tested form may be a part): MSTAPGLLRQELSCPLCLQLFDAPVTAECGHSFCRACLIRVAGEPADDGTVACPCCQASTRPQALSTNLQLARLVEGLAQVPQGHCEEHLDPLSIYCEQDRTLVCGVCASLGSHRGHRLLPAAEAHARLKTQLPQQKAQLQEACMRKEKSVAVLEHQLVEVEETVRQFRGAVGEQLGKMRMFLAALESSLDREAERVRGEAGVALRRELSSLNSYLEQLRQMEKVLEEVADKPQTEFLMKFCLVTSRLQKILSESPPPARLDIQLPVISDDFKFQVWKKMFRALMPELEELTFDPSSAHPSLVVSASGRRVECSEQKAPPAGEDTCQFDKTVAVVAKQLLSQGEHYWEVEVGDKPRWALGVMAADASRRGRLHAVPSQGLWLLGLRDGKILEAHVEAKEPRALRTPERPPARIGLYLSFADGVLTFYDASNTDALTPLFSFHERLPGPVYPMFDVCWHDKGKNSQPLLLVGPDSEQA

Broadly, the Kd is the concentration at which binding is half-saturated. As to “AHNAK1 construct, the final 500 amino acids (domain or fragment)”, the Kd in assay [1] was found to be 380 nM.
Consider “affixin (beta-parvin) construct (domain or fragment)”, for which the dissociation constant Kd in assay [2] is 400 nM; in assay [1], 41000 nM.
The corresponding values for “annexin A1 construct (domain or fragment)” are 330 nM and 25 nM.
As for “calpain-3 construct (domain or fragment)”, the Kd in assay [2] came out at 2.2 nM; in assay [1] it was 1200 nM.
In the case of “caveolin-3 construct (domain or fragment)”, the Kd in assay [2] came to 110 nM; in assay [1], 33 nM.
With “dysferlin canonical C2A domain, construct 1 (aa 1-152 plus 24 aa)”, the dissociation constant Kd amounted to 23.6 nM in assay [3] and 101 nM in assay [4].
“dysferlin canonical C2A domain, construct 3 (aa 19-134)”: in assay [5], the Kd worked out at 190 nM.
With “mitsugumin-53 construct (domain or fragment)”, the Kd in assay [1] stood at 470 nM.
Turning to “syntaxin-4 construct (domain or fragment)”, the Kd in assay [2] amounted to 130 nM; in assay [1], 4400 nM.
